In patent US20170362329A1 (PELICAN THERAPEUTICS, published 2017):
Where two headings read alike, the source gives them in different places. Blank lines part the entries; values can stand above or below the molecule they belong to.

Assays:
[1] = target: human TNFRSF25 (expressed on P815 cells) (human) (UniProt Q93038); experiment: cell-based or functional assay
[2] = target: human TNFRSF25 (expressed on P815 cells) (human), Q93038; experiment: cell-based or functional assay
[3] = target: T1, WBP330.hProl.ECD.hF (human, UniProt Q93038 25-199); experiment: SPR (ProteOn), TNFRSF25 ECD fusion as ligand, antibody as analyte, bivalent analyte model
T1 construct: extracellular domain; also called human TNFRSF25 (SPR ligand)
T1 sequence (looked up): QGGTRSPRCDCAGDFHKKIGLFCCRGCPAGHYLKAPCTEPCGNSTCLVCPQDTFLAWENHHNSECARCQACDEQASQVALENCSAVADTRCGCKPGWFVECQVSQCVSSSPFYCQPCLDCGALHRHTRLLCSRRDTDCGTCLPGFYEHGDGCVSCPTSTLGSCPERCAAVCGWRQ
Method: Affinity of the indicated humanized TNFRSF25 antibodies was determined by surface plasmon resonance (SPR) using the ProteOn method (FIG. 7 and TABLE 3).

[4] = target: human TNFRSF25 (expressed on P815 cells) (human) (UniProt Q93038); experiment: cell-based or functional assay; remark: listed apart in the source
[5] = target: human TNFRSF25 (expressed on P815 cells) (human) (UniProt Q93038); experiment: flow cytometry on P815 cells expressing human TNFRSF25
[6] = target: human TNFRSF25 (expressed on P815 cells) (human) (UniProt Q93038); experiment: flow cytometry on P815 cells expressing human TNFRSF25 (mean fluorescence intensity)
[7] = target: T2, human TNFRSF25-Fc (human, UniProt Q93038 25-199, limits assumed); experiment: ELISA, binding of PTX-25 to human TNFRSF25-Fc, OD 450 nm
T2 construct: also called human TNFRSF25 fusion protein; not shown: Fc part
T2 sequence (looked up): T1 sequence (looked up)

B1: WBP330.cAb1.hIgG1 (35783) (antibody, V domains shown)
VH: EVQLVESGGGLSQPGNSLQLSCEASGFTFSNHDLNWVRQAPGKGLEWVAYISSASGLISYADAVRGRFTISRDNAKNSLFLQMNNLKSEDTAMYYCARDPPYSGLYALDFWGQGTQVTVSS
VL: QPVLTQSPSASASLSGSVKLTCTLSSELSSYTIVWYQQRPDKAPKYVMYLKSDGSHSKGDGIPDRFSGSSSGAHRYLSISNVQSEDDATYFCGAGYTLAGQYGWVFGSGTKVTVL
notes: also called cAb1 (35783); chimeric antibody
EC50 (nM), caspase activation in P815 cells expressing human TNFRSF25 [2]: 71.4 nM
EC50 of induced caspase activity [2]: 0.121 mg/L
Kd [3]: 0.0581 µM
koff [3]: 0.00576 s⁻¹
kon [3]: 99000 M⁻¹ s⁻¹

B3: PTX-25 (human TNFRSF25-specific monoclonal antibody, pre-humanized parental) (antibody, V domains shown)
VH: B1 VH
VL: B1 VL
notes: also called Pre-humanized Parental PTX-25; human TNFRSF25-specific mAb
EC50 (read off the curve) [7]: ~0.04 mg/L
IC50 [7]: 0.00517 µM

Now from value to molecule:

EC50 of induced caspase activity [1]: 0.283 mg/L
Molecule: hTL1A-hFc chimera (from UniProt O95150 72-251) (Fc fusion)

EC50 (nM), caspase activation in P815 cells expressing human TNFRSF25 [4]: 19.6 nM
EC50 of induced caspase activity [4]: 0.0192 mg/L
Kd [5]: 0.0735 µM
Kd [3]: 0.254 µM
koff [3]: 0.0252 s⁻¹
kon [3]: 99000 M⁻¹ s⁻¹
Bmax [6]: 246
B2: WBP330BMK1 (antibody, V domains shown)
VH: B1 VH
VL: B1 VL
